In PMC4895024:

How the values were obtained:
[1] = molecular target: integrin αIIbβ3 exogenously expressed on CHO and COS-7 cells, P08514;P05106; experiment: cell attachment assay (cells on protein-coated plate); conditions: read off a plot
[2] = molecular target: integrin αvβ3 on HUVEC cells, P06756;P05106; experiment: as above
[3] = molecular target: integrin αvβ3 exogenously expressed on CHO and COS-7 cells, P06756;P05106; experiment: as above; conditions: read off a plot
[4] = molecular target: ProAgio (D1-CD2 variant 3) (UniProt P06729); experiment: as above; conditions: CHO cells expressing αvβ3 wild type or β3-KKQ; parent: est. 190; read off a plot; scale: cells attached/field
[5] = molecular target: ProAgio (D1-CD2 variant 3) (not stated (human and rat D1-CD2 are named)) (UniProt P06729); experiment: cell attachment assay; culture plates coated with ProAgio; cells cultured 35 min, washed three times, attached cells counted per view field; some runs with 5 μM Cilengitide or 40 μg/ml antibody LM609
Sequence of ProAgio (D1-CD2 variant 3) (not stated (human and rat D1-CD2 are named)) (P06729 25-206, change not shown): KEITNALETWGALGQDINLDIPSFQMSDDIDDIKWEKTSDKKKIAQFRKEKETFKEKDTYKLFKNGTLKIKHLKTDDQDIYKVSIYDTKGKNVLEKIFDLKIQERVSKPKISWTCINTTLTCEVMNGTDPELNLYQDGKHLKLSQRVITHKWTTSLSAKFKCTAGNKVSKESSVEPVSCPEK

D1-CD2 D99N; I102V; Q103I; E104I; E83T; T9V; W10Q; G11M; A12K
response (cells attached/field) ([1]; CHO cells expressing αIIbβ3): 50 | response (cells attached/field) ([1]; COS-7 cells expressing αIIbβ3): 50 | response (cells attached/field) ([2]; 40 μg ml−1 antibody LM609 (bar is labelled 'Cilengitide' in the image), read off a plot): 280 | response (cells attached/field) ([2]; BSA as control, read off a plot): 310 | response (cells attached/field) ([2]; IgG as control, read off a plot): 340 | response (cells attached/field) ([2]; in the presence of 5 μM of Cilengitide, read off a plot): 230 | response (cells attached/field) ([2]; parent: est. 45, read off a plot): 290 | response (cells attached/field) ([3]; CHO cells expressing αvβ3 (CHOαVβ3), parent: est. 100): 350 | response (cells attached/field) ([3]; CHO cells expressing αvβ3): 280 | response (cells attached/field) ([3]; COS-7 cells expressing αvβ3 (COS7αVβ3), parent: est. 90): 310 | response (cells attached/field) ([3]; COS-7 cells expressing αvβ3): 350

integrin αvβ3 exogenously expressed on CHO and COS-7 cells (from UniProt P06756;P05106) β3-KKQ
response [4]: 44

integrin αvβ5 expressed on COS-7 cells (from UniProt P06756 31-1048; P18084 24-799) (receptor)
fold less attachment than αvβ3-expressing cells [5]: > 3 fold
